Data as given in paper PMC9090809 (2022).

Biological target: LC3-trap Wx8 (covalently labelled with an N-hydroxysuccinimide (RED-NHS) dye in the MST)
Test: MST

Binder | Kd [nM]
recombinant LC3C (natural protein) MPPPQKIPSVRPFKQRKSLAIRQEEVAGIRAKFPNKIPVVVERYPRETFLPPLDKTKFLVPQELTMTQFLSIIRSRMVLRATEAFYLLVNNKSLVSMSATMAEIYRDYKDEDGFVYMTYASQETFG | 3.4
recombinant GABARAP (natural protein) MKFVYKEEHPFEKRRSEGEKIRKKYPDRVPVIVEKAPKARIGDLDKKKYLVPSDLTVGQFYFLIRKRIHLRAEDALFFFVNNVIPPTSATMGQLYQEHHEEDFFLYIAYSDESVYGL | 24.8
